From patent publication US20250145711A1 (Janssen / Centocor, published 2025)

Columns and labels:
[1] = biological target: T1, TRCW5 antigen (CD3δε-Fc-Avi) (biotinylated (site not stated)); assay: ELISA
T1 construct: also called recombinant CD3

[2] = biological target: T1, TRCW5 antigen (CD3δε-Fc-Avi); assay: binding after heat

T1 sequence (chain, as listed by the source mutant limits assumed): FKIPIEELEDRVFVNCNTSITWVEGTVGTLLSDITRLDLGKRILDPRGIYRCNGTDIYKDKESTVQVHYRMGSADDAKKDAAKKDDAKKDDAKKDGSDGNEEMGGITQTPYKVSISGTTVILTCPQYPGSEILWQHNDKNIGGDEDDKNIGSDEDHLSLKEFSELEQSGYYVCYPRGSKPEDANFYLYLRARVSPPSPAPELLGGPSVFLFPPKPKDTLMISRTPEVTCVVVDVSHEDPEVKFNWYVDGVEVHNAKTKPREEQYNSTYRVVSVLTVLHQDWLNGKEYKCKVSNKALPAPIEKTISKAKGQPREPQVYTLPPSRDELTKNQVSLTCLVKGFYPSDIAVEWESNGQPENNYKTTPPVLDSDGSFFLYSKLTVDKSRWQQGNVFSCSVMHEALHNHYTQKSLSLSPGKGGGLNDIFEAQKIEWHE

Binder | EC50 [1] | % Retained 55° C. [2] | % Retained 60° C. [2] | % Retained 65° C. [2]
CD3B2030 N106A (scFv) scFv: QVQLVQSGAEVKKPGSSVKVSCKASGYTFTRSTMHWVKQAPGQGLEWIGYINPSSAYTNYNQKFQGRVTLTADKSTSTAYMELSSLRSEDTAVYYCASPQVHYDYAGFPYWGQGTLVTVSSGGSEGKSSGSGSESKSTGGSEIVLTQSPATLSASPGERVTLSCSASSSVSYMNWYQQKPGQAPRRWIYDSSKLASGVPARFSGSGSGRDYTLTISSLEPEDFAVYYCQQWSRNPPTFGGGTKVEIK | 12.8 nM | 111% | 103% | 55.6%
CD3B2030 N106S (scFv) scFv: QVQLVQSGAEVKKPGSSVKVSCKASGYTFTRSTMHWVKQAPGQGLEWIGYINPSSAYTNYNQKFQGRVTLTADKSTSTAYMELSSLRSEDTAVYYCASPQVHYDYSGFPYWGQGTLVTVSSGGSEGKSSGSGSESKSTGGSEIVLTQSPATLSASPGERVTLSCSASSSVSYMNWYQQKPGQAPRRWIYDSSKLASGVPARFSGSGSGRDYTLTISSLEPEDFAVYYCQQWSRNPPTFGGGTKVEIK | 19.1 nM | 64.6% | 19% | 0.6%
CD3B2051 N106G (scFv) scFv: QVQLVQSGAEVKKPGSSVKVSCKASGYTFTRSTMHWVKQAPGQGLEWMGYINPSSAYTNYNQKFQGRVTLTADKSTSTAYMELSSLRSEDTAVYYCASPQVHYDYGGFPYWGQGTLVTVSSGGSEGKSSGSGSESKSTGGSEIVLTQSPATLSASPGERVTLSCSASSSVSYMNWYQQKPGQAPRRLIYDSSKLASGVPARFSGSGSGRDYTLTISSLEPEDFAVYYCQQWSRNPPTFGGGTKVEIK | 13.8 nM | 98.9% | 33.1% | 1.5%
CD3B2051 N106K (scFv) scFv: QVQLVQSGAEVKKPGSSVKVSCKASGYTFTRSTMHWVKQAPGQGLEWMGYINPSSAYTNYNQKFQGRVTLTADKSTSTAYMELSSLRSEDTAVYYCASPQVHYDYKGFPYWGQGTLVTVSSGGSEGKSSGSGSESKSTGGSEIVLTQSPATLSASPGERVTLSCSASSSVSYMNWYQQKPGQAPRRLIYDSSKLASGVPARFSGSGSGRDYTLTISSLEPEDFAVYYCQQWSRNPPTFGGGTKVEIK | 11.4 nM | 116% | 91.3% | 4%
CD3B2051 N106R (scFv) scFv: QVQLVQSGAEVKKPGSSVKVSCKASGYTFTRSTMHWVKQAPGQGLEWMGYINPSSAYTNYNQKFQGRVTLTADKSTSTAYMELSSLRSEDTAVYYCASPQVHYDYRGFPYWGQGTLVTVSSGGSEGKSSGSGSESKSTGGSEIVLTQSPATLSASPGERVTLSCSASSSVSYMNWYQQKPGQAPRRLIYDSSKLASGVPARFSGSGSGRDYTLTISSLEPEDFAVYYCQQWSRNPPTFGGGTKVEIK | 11.2 nM | 101% | 74.5% | 8.4%
CD3B2051 N106A (scFv) scFv: QVQLVQSGAEVKKPGSSVKVSCKASGYTFTRSTMHWVKQAPGQGLEWMGYINPSSAYTNYNQKFQGRVTLTADKSTSTAYMELSSLRSEDTAVYYCASPQVHYDYAGFPYWGQGTLVTVSSGGSEGKSSGSGSESKSTGGSEIVLTQSPATLSASPGERVTLSCSASSSVSYMNWYQQKPGQAPRRLIYDSSKLASGVPARFSGSGSGRDYTLTISSLEPEDFAVYYCQQWSRNPPTFGGGTKVEIK | 12.1 nM | 98.9% | 97% | 33.3%
CD3B2030 N106L (scFv) scFv: QVQLVQSGAEVKKPGSSVKVSCKASGYTFTRSTMHWVKQAPGQGLEWIGYINPSSAYTNYNQKFQGRVTLTADKSTSTAYMELSSLRSEDTAVYYCASPQVHYDYLGFPYWGQGTLVTVSSGGSEGKSSGSGSESKSTGGSEIVLTQSPATLSASPGERVTLSCSASSSVSYMNWYQQKPGQAPRRWIYDSSKLASGVPARFSGSGSGRDYTLTISSLEPEDFAVYYCQQWSRNPPTFGGGTKVEIK | 11.4 nM | 107% | 100% | 25.6%
CD3B2089 N106P (scFv) scFv: QVQLVQSGAEVKKPGSSVKVSCKASGYTFTRSTMHWVRQAPGQGLEWMGYINPSSAYTNYAQKFQGRVTLTADKSTSTAYMELSSLRSEDTAVYYCASPQVHYDYPGFPYWGQGTLVTVSSGGSEGKSSGSGSESKSTGGSEIVLTQSPATLSASPGERVTLSCSASSSVSYMNWYQQKPGQAPRRWIYDSSKLASGVPARFSGSGSGRDYTLTISSLEPEDFAVYYCQQWSRNPPTFGGGTKVEIK | ~27.4 nM | – | – | –
CD3B2030 N106G (scFv) scFv: QVQLVQSGAEVKKPGSSVKVSCKASGYTFTRSTMHWVKQAPGQGLEWIGYINPSSAYTNYNQKFQGRVTLTADKSTSTAYMELSSLRSEDTAVYYCASPQVHYDYGGFPYWGQGTLVTVSSGGSEGKSSGSGSESKSTGGSEIVLTQSPATLSASPGERVTLSCSASSSVSYMNWYQQKPGQAPRRWIYDSSKLASGVPARFSGSGSGRDYTLTISSLEPEDFAVYYCQQWSRNPPTFGGGTKVEIK | 14.3 nM | 115% | 59.8% | 1.7%
CD3B2030 N106K (scFv) scFv: QVQLVQSGAEVKKPGSSVKVSCKASGYTFTRSTMHWVKQAPGQGLEWIGYINPSSAYTNYNQKFQGRVTLTADKSTSTAYMELSSLRSEDTAVYYCASPQVHYDYKGFPYWGQGTLVTVSSGGSEGKSSGSGSESKSTGGSEIVLTQSPATLSASPGERVTLSCSASSSVSYMNWYQQKPGQAPRRWIYDSSKLASGVPARFSGSGSGRDYTLTISSLEPEDFAVYYCQQWSRNPPTFGGGTKVEIK | 11.7 nM | 99.7% | 87.2% | 7.3%

Results, then the binder that gave them:

EC50 [1] | % Retained 55° C. [2] | % Retained 60° C. [2] | % Retained 65° C. [2] | Binder
10.9 nM | 103% | 84.2% | 9% | CD3B2051 N106H (scFv) scFv: QVQLVQSGAEVKKPGSSVKVSCKASGYTFTRSTMHWVKQAPGQGLEWMGYINPSSAYTNYNQKFQGRVTLTADKSTSTAYMELSSLRSEDTAVYYCASPQVHYDYHGFPYWGQGTLVTVSSGGSEGKSSGSGSESKSTGGSEIVLTQSPATLSASPGERVTLSCSASSSVSYMNWYQQKPGQAPRRLIYDSSKLASGVPARFSGSGSGRDYTLTISSLEPEDFAVYYCQQWSRNPPTFGGGTKVEIK
9.7 nM | 106% | 83.3% | 21.8% | CD3B2030 N106F (scFv) scFv: QVQLVQSGAEVKKPGSSVKVSCKASGYTFTRSTMHWVKQAPGQGLEWIGYINPSSAYTNYNQKFQGRVTLTADKSTSTAYMELSSLRSEDTAVYYCASPQVHYDYFGFPYWGQGTLVTVSSGGSEGKSSGSGSESKSTGGSEIVLTQSPATLSASPGERVTLSCSASSSVSYMNWYQQKPGQAPRRWIYDSSKLASGVPARFSGSGSGRDYTLTISSLEPEDFAVYYCQQWSRNPPTFGGGTKVEIK
8.05 nM | 78.4% | 15.4% | 0.5% | CD3B2051 N106E (scFv) scFv: QVQLVQSGAEVKKPGSSVKVSCKASGYTFTRSTMHWVKQAPGQGLEWMGYINPSSAYTNYNQKFQGRVTLTADKSTSTAYMELSSLRSEDTAVYYCASPQVHYDYEGFPYWGQGTLVTVSSGGSEGKSSGSGSESKSTGGSEIVLTQSPATLSASPGERVTLSCSASSSVSYMNWYQQKPGQAPRRLIYDSSKLASGVPARFSGSGSGRDYTLTISSLEPEDFAVYYCQQWSRNPPTFGGGTKVEIK
10.6 nM | 104% | 98.9% | 55.7% | CD3B2030 N106H (scFv) scFv: QVQLVQSGAEVKKPGSSVKVSCKASGYTFTRSTMHWVKQAPGQGLEWIGYINPSSAYTNYNQKFQGRVTLTADKSTSTAYMELSSLRSEDTAVYYCASPQVHYDYHGFPYWGQGTLVTVSSGGSEGKSSGSGSESKSTGGSEIVLTQSPATLSASPGERVTLSCSASSSVSYMNWYQQKPGQAPRRWIYDSSKLASGVPARFSGSGSGRDYTLTISSLEPEDFAVYYCQQWSRNPPTFGGGTKVEIK
10.9 nM | 87.7% | 32.6% | 0.2% | CD3B2051 N106P (scFv) scFv: QVQLVQSGAEVKKPGSSVKVSCKASGYTFTRSTMHWVKQAPGQGLEWMGYINPSSAYTNYNQKFQGRVTLTADKSTSTAYMELSSLRSEDTAVYYCASPQVHYDYPGFPYWGQGTLVTVSSGGSEGKSSGSGSESKSTGGSEIVLTQSPATLSASPGERVTLSCSASSSVSYMNWYQQKPGQAPRRLIYDSSKLASGVPARFSGSGSGRDYTLTISSLEPEDFAVYYCQQWSRNPPTFGGGTKVEIK
10.6 nM | 107% | 104% | 53.8% | CD3B2030 N106R (scFv) scFv: QVQLVQSGAEVKKPGSSVKVSCKASGYTFTRSTMHWVKQAPGQGLEWIGYINPSSAYTNYNQKFQGRVTLTADKSTSTAYMELSSLRSEDTAVYYCASPQVHYDYRGFPYWGQGTLVTVSSGGSEGKSSGSGSESKSTGGSEIVLTQSPATLSASPGERVTLSCSASSSVSYMNWYQQKPGQAPRRWIYDSSKLASGVPARFSGSGSGRDYTLTISSLEPEDFAVYYCQQWSRNPPTFGGGTKVEIK
11.1 nM | 101% | 70.9% | 1.5% | CD3B2051 N106S (scFv) scFv: QVQLVQSGAEVKKPGSSVKVSCKASGYTFTRSTMHWVKQAPGQGLEWMGYINPSSAYTNYNQKFQGRVTLTADKSTSTAYMELSSLRSEDTAVYYCASPQVHYDYSGFPYWGQGTLVTVSSGGSEGKSSGSGSESKSTGGSEIVLTQSPATLSASPGERVTLSCSASSSVSYMNWYQQKPGQAPRRLIYDSSKLASGVPARFSGSGSGRDYTLTISSLEPEDFAVYYCQQWSRNPPTFGGGTKVEIK
